From publication PMC7007523 (Proceedings of the National Academy of Sciences of the …, 2020)
Blank lines part the entries; values can stand above or below the molecule they belong to. Non-standard residues stand in square brackets, D forms with d. No end group written: not given here. Hyp = O=C(O)[C@@H]1C[C@@H](O)CN1

Legend:
[1] = biological target: SGN3^3xmut ectodomain (Tyr416, Phe438 and Tyr440 replaced by alanine) (Arabidopsis) (UniProt C0LGQ5); assay: grating-coupled interferometry
[2] = biological target: GSO1/SGN3 ectodomain (residues 19 to 870) (Arabidopsis) (UniProt C0LGQ5); assay: grating-coupled interferometry
[3] = biological target: GSO1/SGN3 ectodomain (residues 19 to 870) (Arabidopsis) (UniProt C0LGQ5); assay: ITC
GSO1/SGN3 = assay: Binding of CIF2^Hyp69,71 to GSO1/SGN3; parameters: species or system Arabidopsis; settings: SI Appendix, Fig. S6
[4] = biological target: GSO2 ectodomain (recombinant) (Arabidopsis) (UniProt Q9FIZ3); assay: grating-coupled interferometry
Sequence of GSO2 ectodomain (recombinant) (Arabidopsis) (Q9FIZ3 23-876): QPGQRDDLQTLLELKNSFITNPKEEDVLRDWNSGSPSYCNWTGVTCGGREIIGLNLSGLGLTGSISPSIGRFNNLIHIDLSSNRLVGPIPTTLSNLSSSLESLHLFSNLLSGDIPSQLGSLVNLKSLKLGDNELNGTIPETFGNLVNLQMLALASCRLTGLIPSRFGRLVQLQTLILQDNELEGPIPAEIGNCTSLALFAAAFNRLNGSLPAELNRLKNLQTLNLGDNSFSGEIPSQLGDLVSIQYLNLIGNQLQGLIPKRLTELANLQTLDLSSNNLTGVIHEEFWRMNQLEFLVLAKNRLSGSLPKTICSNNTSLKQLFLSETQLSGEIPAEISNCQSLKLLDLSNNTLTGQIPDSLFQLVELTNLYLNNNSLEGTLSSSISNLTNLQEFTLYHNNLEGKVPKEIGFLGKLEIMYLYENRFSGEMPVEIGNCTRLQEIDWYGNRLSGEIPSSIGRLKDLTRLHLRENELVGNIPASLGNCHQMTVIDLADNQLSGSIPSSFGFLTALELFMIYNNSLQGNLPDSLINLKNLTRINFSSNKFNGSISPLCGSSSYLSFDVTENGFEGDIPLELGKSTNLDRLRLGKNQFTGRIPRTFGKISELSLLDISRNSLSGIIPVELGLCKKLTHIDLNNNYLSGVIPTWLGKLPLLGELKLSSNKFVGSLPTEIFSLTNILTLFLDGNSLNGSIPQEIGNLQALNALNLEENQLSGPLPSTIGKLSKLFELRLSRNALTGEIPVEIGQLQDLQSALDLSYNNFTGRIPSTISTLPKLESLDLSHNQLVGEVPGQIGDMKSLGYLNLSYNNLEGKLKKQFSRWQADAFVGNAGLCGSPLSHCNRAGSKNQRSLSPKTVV

[5] = biological target: BAM1 ectodomain (Arabidopsis) (UniProt O49545); assay: grating-coupled interferometry
Sequence of BAM1 ectodomain (Arabidopsis) (O49545 20-640): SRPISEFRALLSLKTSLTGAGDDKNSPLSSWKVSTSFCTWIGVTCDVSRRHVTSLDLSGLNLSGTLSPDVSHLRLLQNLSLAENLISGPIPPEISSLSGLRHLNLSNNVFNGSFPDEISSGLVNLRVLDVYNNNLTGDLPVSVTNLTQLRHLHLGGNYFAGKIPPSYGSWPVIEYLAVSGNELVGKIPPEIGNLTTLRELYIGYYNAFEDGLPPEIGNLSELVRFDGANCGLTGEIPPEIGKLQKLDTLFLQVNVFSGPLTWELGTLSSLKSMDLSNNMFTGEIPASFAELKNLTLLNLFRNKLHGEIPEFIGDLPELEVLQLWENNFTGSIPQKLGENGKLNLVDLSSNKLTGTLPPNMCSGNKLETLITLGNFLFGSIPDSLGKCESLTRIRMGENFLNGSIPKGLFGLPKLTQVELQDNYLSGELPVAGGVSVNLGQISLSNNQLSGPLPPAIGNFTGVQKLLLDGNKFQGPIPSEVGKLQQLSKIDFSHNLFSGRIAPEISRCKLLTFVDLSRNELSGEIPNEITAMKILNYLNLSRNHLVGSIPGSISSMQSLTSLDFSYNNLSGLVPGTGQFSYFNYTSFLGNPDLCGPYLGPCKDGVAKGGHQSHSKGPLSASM

[6] = biological target: PEPR1 ectodomain (Arabidopsis) (UniProt Q9SSL9); assay: grating-coupled interferometry
Sequence of PEPR1 ectodomain (Arabidopsis) (Q9SSL9 29-769): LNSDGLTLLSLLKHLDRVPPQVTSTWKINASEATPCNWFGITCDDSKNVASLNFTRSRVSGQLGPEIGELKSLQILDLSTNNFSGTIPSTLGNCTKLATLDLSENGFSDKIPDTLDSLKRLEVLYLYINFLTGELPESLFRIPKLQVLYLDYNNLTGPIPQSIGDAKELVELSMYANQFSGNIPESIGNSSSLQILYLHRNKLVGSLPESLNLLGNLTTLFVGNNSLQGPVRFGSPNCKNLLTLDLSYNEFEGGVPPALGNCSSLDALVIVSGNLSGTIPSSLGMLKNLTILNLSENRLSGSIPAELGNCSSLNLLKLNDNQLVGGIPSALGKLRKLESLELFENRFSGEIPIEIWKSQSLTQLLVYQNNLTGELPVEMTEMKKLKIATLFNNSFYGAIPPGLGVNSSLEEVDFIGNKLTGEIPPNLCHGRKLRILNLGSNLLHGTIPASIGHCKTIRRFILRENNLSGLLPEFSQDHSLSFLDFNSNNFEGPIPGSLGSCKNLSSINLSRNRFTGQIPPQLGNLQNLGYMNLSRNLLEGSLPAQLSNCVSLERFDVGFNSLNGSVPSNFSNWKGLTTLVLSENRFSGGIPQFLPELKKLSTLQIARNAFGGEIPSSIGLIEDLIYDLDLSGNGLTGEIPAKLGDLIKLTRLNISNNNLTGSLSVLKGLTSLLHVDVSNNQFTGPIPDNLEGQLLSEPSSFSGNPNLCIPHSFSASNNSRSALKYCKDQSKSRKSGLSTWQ

EFR = assay: GCI, SERK3 binding to EFR; parameters: species or system Arabidopsis
FLS2 = assay: GCI, SERK3 binding to FLS2; parameters: species or system Arabidopsis
[7] = biological target: GSO2 in the presence of CIF3; assay: GCI coreceptor assay, SERK1 and SERK3 vs GSO2 in the presence of CIF3; parameters: species or system Arabidopsis; settings: read-out: Kd of SERK binding to GSO2
[8] = test system: GSO1/SGN3 ectodomain (SGN3^WT) - CIF peptide; settings: CIF-dependent interaction
[9] = biological target: FLS2 ectodomain (isolated) (Arabidopsis) (UniProt Q9FL28); assay: grating-coupled interferometry
Sequence of FLS2 ectodomain (isolated) (Arabidopsis) (Q9FL28 24-806): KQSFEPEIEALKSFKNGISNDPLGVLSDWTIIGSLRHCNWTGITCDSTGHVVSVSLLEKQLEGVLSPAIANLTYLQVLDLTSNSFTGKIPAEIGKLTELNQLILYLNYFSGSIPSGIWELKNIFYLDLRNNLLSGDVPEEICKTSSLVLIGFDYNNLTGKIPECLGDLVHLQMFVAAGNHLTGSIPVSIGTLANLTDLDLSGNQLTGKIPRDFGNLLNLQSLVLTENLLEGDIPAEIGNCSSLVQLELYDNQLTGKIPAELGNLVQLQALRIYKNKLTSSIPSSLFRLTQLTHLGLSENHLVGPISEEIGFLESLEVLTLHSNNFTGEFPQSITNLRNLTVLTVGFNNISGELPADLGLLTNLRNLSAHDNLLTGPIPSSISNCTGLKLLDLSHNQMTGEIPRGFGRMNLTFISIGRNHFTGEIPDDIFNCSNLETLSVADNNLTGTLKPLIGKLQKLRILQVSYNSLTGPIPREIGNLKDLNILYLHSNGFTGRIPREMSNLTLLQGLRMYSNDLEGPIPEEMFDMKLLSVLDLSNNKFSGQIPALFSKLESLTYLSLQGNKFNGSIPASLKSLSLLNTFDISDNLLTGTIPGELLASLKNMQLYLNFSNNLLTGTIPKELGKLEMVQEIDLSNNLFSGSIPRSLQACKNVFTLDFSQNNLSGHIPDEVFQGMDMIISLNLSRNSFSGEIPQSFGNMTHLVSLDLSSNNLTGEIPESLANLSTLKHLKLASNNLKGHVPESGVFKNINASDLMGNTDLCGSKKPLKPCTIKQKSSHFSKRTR

[10] = biological target: T1, GSO1/SGN3 ectodomain (SGN3^WT) - CIF peptide (Arabidopsis thaliana, UniProt C0LGQ5); settings: in the absence of CIF peptide
T1 sequence (C0LGQ5 19-870): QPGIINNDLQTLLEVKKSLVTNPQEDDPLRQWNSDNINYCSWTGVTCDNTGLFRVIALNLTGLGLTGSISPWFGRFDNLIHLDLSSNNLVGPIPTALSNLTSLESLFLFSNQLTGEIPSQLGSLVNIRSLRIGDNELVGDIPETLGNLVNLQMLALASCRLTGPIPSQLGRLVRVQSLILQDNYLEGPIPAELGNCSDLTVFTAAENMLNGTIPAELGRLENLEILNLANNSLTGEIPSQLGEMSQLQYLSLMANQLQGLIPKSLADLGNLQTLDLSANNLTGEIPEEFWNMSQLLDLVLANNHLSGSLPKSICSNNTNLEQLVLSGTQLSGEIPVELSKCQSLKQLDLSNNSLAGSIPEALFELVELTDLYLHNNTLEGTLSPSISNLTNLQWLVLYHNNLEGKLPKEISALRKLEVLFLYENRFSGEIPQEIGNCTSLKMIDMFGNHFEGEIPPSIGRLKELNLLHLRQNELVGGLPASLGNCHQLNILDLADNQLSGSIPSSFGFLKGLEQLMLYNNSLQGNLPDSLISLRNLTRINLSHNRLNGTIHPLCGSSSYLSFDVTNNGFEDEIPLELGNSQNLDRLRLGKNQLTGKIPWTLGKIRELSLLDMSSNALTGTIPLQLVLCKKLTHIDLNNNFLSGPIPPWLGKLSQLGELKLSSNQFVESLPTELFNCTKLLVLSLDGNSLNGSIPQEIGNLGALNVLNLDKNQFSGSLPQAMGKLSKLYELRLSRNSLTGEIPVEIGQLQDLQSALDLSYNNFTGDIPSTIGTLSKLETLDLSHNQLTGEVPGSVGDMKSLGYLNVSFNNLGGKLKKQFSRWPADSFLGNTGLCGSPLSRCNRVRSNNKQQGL

[11] = biological target: FLS2 ectodomain (isolated) (Arabidopsis, UniProt Q9FL28 24-806); assay: grating-coupled interferometry
Sequence of FLS2 ectodomain (isolated) (Q9FL28 24-806): as the sequence (Q9FL28 24-806) above

fold reduction of CIF2 binding against wild-type GSO1/SGN3 [1]: 10 fold
Kd [2]: 0.002 µM
Kd [3]: 0.04 µM
stoichiometry N [3]: 1
Molecule: CIF2 peptide, synthetic sTyr-containing (CIF2^WT) (from UniProt O65684 29-83)

dissociation constant compared with CIF2^WT (GSO1/SGN3): very similar dissociation constants
Molecule: CIF2^Hyp69,71: CIF2 with hydroxyprolines at positions 69 and 71 (GRSSILIYSQEDDHPEVVERRIHEHERILRMNSRDYGHSS[Hyp]K[Hyp]KLVRPPFKLIPN)

Kd [4]: 0.004 µM
Kd [2]: 0.004 µM
Molecule: CIF3 peptide, tyrosine sulfated (CIF3^WT)

Kd [3]: 0.3 µM
stoichiometry N [3]: 1
Molecule: CIF4 peptide (wild type)

Kd [5]: 0.001 µM
Molecule: CLE9 peptide (12 amino acids)

Kd [6]: 0.1 µM
Molecule: PEP1 danger signal peptide (23 amino acids)

Kd [6]: 20 µM
Molecule: PEP2 danger signal peptide (23 amino acids) (from UniProt Q9LV88 74-109)

affinity of SERK3 binding (EFR): low micromolar affinity
affinity of SERK3 binding (FLS2): low micromolar affinity
Kd [7]: 0.02 to 0.08 µM
Molecule: SERK3: recombinant LRR ectodomain of the SERK3 coreceptor kinase
interaction of coreceptor candidate with GSO1/SGN3 in GCI assays [8]: interacts

Molecule: flg22 immune elicitor peptide
Kd [9]: 1.5 µM

Kd [7]: 0.02 to 0.08 µM
SERK1 binding to SGN3 [10]: No SERK1 binding
B1: SERK1: recombinant LRR ectodomain of the SERK1 coreceptor kinase (residues 24 to 213) (protein)
chain: ASANLEGDALHTLRVTLVDPNNVLQSWDPTLVNPCTWFHVTCNNENSVIRVDLGNAELSGHLVPELGVLKNLQYLELYSNNITGPIPSNLGNLTNLVSLDLYLNSFSGPIPESLGKLSKLRFLRLNNNSLTGSIPMSLTNITTLQVLDLSNNRLSGSVPDNGSFSLFTPISFANNLDLCGPVTSHPCPGS

binding result [11]: binds
B2: SERK3 LRR ectodomain (receptor, Arabidopsis, UniProt Q94F62 26-225, looked up)
chain: NAEGDALSALKNSLADPNKVLQSWDATLVTPCTWFHVTCNSDNSVTRVDLGNANLSGQLVMQLGQLPNLQYLELYSNNITGTIPEQLGNLTELVSLDLYLNNLSGPIPSTLGRLKKLRFLRLNNNSLSGEIPRSLTAVLTLQVLDLSNNPLTGDIPVNGSFSLFTPISFANTKLTPLPASPPPPISPTPPSPAGSNRITG
